For this data set, the system named is T1, BssHII restriction endonuclease (bssHIIR) (Bacillus stearothermophilus H3).
T1 sequence: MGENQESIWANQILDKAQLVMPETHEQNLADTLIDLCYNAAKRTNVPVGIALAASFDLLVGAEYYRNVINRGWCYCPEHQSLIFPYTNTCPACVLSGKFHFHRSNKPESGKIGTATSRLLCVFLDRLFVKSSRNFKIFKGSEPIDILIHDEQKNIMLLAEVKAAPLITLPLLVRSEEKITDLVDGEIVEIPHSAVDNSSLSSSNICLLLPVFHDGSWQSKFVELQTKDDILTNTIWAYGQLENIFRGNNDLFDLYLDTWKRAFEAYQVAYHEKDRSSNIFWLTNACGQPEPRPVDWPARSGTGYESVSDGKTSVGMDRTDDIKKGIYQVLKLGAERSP
Put plainly: cleavage_in_vitro. The note with it: cell extract; activity seen after 10- and 100-fold dilution.

With lambda DNA (BssHII sites), the activity (units per g wet cells) was determined as 100000.
